Test results taken from publication doi:10.1101/2023.08.29.555277.

Key:
[1] = biological target: F-actin (polymerised purified rabbit skeletal G-actin) (rabbit) (UniProt P68135); assay: co-sedimentation
[2] = biological target: microtubules polymerised from porcine Tubulin (porcine) (UniProt P02550); assay: co-sedimentation
UniProt P02550, sequence (P02550 whole entry, looked up): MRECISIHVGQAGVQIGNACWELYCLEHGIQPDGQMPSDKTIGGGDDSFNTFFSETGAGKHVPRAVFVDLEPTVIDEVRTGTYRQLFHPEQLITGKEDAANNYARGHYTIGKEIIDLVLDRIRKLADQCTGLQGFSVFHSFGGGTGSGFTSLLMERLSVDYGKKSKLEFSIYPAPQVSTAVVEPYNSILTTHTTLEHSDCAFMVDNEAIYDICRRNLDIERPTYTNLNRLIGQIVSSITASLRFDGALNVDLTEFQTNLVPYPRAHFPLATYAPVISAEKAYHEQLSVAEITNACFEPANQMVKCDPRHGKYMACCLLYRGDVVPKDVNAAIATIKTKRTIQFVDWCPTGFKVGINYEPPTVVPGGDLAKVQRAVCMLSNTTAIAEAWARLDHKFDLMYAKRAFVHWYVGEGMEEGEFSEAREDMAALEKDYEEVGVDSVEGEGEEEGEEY

Substance	Pellet/Supernatant with F-actin [1]	further results
HTT fragment containing the Bridge to C_HEAT domains (B-C_HEAT; 1887 to 3144 a.a.) (domain or fragment)	1.57	
endogenous HTT of mouse developing cortex (from UniProt P42859 1-3119) (natural protein)		amount of HTT in the pellet with microtubules [2]: 1.18
endogenous HTT of mouse developing cortex, P42859 1-3119		amount of HTT in the pellet with F-actin ([1]; remark: other sources report otherwise): 1.07

Second part, led by results:

Pellet/Supernatant with F-actin [1]	Substance	further results
1.6	HTT Bridge domain tagged with GST (GST-B: 1887-2098 a.a.) (domain or fragment)	
1.05	purified human full-length (FL) wild-type HTT (23 glutamines) (from UniProt P42858 1-3142) (natural protein)	Kd [1]: 357 nM
